Experimental findings from US20200096507A1 are described below.

What all share (assay): cell-based or functional assay
Assay [1] concerns the target CadC-artTM-GCN4 (E. coli) (UniProt P23890).
In another assay the target is DsRed (UniProt Q9U6Y8).
The target in the next assay is CadC-wtTM-GCN4 (E. coli) (UniProt P23890).

Sequence of DsRed (Q9U6Y8 whole entry): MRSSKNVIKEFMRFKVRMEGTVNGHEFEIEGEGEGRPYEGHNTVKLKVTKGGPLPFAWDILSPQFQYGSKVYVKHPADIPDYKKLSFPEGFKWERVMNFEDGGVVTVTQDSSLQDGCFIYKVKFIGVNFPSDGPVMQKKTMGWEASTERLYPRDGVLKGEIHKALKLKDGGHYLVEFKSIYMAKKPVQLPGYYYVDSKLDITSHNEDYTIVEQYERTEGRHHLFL

For “CadC-artTM-GCN4 (from UniProt P23890 1-154; P03069 253-274)”, in assay [1], the fold change in GFP expression compared to the construct without GCN4 (pCadBA-GFP reporter, E. coli, flow cytometry) is 300 fold.

For the substance “LexA-DBD-Lam4 (from UniProt P0A7C2 1-87)”, in the assay with DsRed, the deGFP signal strength with DsRed in the medium (cell-free system, pLexA-deGFP reporter 300 ng/reaction, LexA-Lam4 plasmid 800 ng/reaction) turned out to be 4850 a.u; the deGFP signal strength without DsRed in the medium (baseline; cell-free system, pLexA-deGFP reporter 300 ng/reaction, LexA-Lam4 plasmid 800 ng/reaction) was 41400 a.u; the ratio of deGFP signal strength without and with DsRed (cell-free system, pLexA-deGFP reporter 300 ng/reaction, LexA-Lam4 plasmid 800 ng/reaction) came to 8.5.

Regarding “CadC-wtTM-GCN4 (from UniProt P23890 1-187; P03069 253-274)”, the fold change in GFP expression compared to the construct without GCN4 (pCadBA-GFP reporter, E. coli, flow cytometry) with CadC-wtTM-GCN4 (E. coli) is 50 fold.
